Data reported in US20230031670, “METHOD AND KIT FOR DETECTION OF POLYNUCLEOTIDE” (Counci of Scientific & Industrial Research, published 2023).

How the values were obtained:
Settings in all cases: tags: GFP; Ni-NTA purified
dFnCas9-GFP [1] = target: T1, dFnCas9-GFP (Francisella novicida, UniProt A0Q5Y3 SEQ:272-1899); assay: MST; low Kd, value in figure only; 30 bp dsDNA, 10 mM MgCl2
T1 chain: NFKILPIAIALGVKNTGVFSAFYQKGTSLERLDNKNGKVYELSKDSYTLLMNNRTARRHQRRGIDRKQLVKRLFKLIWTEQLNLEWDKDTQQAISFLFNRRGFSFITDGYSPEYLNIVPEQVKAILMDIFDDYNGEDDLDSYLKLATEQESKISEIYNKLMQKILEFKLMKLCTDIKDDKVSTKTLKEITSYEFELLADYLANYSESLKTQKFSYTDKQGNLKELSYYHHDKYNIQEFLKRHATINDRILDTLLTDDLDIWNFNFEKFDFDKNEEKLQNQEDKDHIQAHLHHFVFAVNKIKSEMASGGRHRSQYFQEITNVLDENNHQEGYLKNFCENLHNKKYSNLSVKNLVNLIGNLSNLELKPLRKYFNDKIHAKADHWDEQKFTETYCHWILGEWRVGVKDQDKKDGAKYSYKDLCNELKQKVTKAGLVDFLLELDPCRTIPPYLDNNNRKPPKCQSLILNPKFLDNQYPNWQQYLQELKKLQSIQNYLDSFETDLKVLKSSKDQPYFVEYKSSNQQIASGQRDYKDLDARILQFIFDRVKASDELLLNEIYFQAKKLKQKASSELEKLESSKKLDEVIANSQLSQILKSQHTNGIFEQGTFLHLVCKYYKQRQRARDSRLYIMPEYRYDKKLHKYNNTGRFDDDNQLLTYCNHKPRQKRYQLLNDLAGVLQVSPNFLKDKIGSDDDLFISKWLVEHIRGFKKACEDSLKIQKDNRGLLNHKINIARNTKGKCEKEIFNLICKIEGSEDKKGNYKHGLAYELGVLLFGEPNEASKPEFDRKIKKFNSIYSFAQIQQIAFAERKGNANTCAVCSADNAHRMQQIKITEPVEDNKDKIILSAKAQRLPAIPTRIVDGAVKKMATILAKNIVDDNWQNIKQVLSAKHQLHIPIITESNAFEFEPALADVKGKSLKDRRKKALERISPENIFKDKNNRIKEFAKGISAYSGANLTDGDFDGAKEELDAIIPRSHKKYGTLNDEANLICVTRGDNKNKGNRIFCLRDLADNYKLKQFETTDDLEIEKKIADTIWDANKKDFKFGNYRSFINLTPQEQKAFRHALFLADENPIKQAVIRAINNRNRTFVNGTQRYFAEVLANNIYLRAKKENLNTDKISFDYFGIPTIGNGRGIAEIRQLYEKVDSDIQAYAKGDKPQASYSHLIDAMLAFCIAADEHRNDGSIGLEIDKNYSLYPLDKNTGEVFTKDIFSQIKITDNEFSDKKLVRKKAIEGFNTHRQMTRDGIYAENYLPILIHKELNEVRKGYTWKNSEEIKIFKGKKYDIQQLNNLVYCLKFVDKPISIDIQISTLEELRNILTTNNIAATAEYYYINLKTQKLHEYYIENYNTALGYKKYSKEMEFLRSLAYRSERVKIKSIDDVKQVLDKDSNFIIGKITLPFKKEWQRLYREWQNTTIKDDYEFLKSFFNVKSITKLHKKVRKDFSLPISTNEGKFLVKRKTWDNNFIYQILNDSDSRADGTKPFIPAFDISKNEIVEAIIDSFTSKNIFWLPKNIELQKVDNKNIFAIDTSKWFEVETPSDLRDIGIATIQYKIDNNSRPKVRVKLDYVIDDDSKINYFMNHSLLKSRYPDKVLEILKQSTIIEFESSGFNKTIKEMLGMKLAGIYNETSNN
Experimental: (§1) MST was performed as reported previously [Dong, D. et al. The crystal structure of Cpfl in complex with CRISPR RNA. Nature (2016); Wienken, C. J., Baaske, P., Rothbauer, U., Braun, D. & Duhr, S. Protein-binding assays in biological liquids using microscale thermophoresis. Nat. Commun. (2010)]. Briefly, dFnCAS9-GFP (SEQ ID NO: 3) protein was complexed with PAGE purified respective IVT sgRNAs (purified by 12% Urea-PAGE). The binding affinities of the CAS9 proteins and sgRNA RNP complexes were calculated using Monolith NT. 115 (NanoTemper Technologies GmbH, Munich, Germany). RNP complex (Protein:sgRNA molar ratio,1:1) was reconstituted at 25° C. for 10 mins in reaction buffer (20 mM HEPES, pH7.5, 150 mM KCl, 1 mM DTT, 10 mM MgCl₂). HPLC purified 30 bp dsDNA (IDT) of different genomic loci with varying concentrations (ranging from 0.09 nM to 30,t/M) were incubated with RNP complex at 37° C. temperature for 30 min in reaction buffer. The sample was loaded into NanoTemper standard treated capillaries and measurements were performed at 25° C. using 20% LED power and 40% MST power. Data analyses were done using NanoTemper analysis software.

dFnCas9-GFP [2] = target: T1, dFnCas9-GFP; assay: MST; SEQ ID NO 33 mismatches at 2 and 6; no binding seen
Experimental: as §1

dFnCas9-GFP [3] = target: T1, dFnCas9-GFP; assay: MST; no binding seen
Experimental: as §1

B1: HBB WT sgRNA (FnCas9) ; HBB WT target (ssRNA ; dsDNA)
RNA: GUAACGGCAGACUUCUCCUCAGGGUUUCAGUUGCGCCGAAAGGCGCUCUGUAAUCAUUUAAAAGUAUUUUGAACGGACCUCUGUUUGACACGUCUG
DNA 1: GTAACGGCAGACTTCTCCTC
DNA 2: GAGGAGAAGTCTGCCGTTAC
- binding result (dFnCas9-GFP [1]): binds

B2: HBB sgRNA with mismatches at PAM-proximal 2 and 6 (FnCas9) ; HBB WT target (ssRNA ; dsDNA)
RNA: GUAACGGCAGACUUAUCCACAGGGUUUCAGUUGCGCCGAAAGGCGCUCUGUAAUCAUUUAAAAGUAUUUUGAACGGACCUCUGUUUGACACGUCUG
DNA 1: GTAACGGCAGACTTCTCCTC
DNA 2: GAGGAGAAGTCTGCCGTTAC
- binding result (dFnCas9-GFP [2]): no binding

B3: HBB WT sgRNA (FnCas9) ; HBB mismatched target 1 (ssRNA ; dsDNA)
RNA: GUAACGGCAGACUUCUCCUCAGGGUUUCAGUUGCGCCGAAAGGCGCUCUGUAAUCAUUUAAAAGUAUUUUGAACGGACCUCUGUUUGACACGUCUG
DNA 1: GAAGAAAAGTCTGCCGTTAC
DNA 2: GTAACGGCAGACTTTTCTTC
- binding result (dFnCas9-GFP [3]): no binding
